Assay results published in PMC10397247.

Tests used:
O4-bA = target: T1, O4-bA; experiment: two-hybrid library CCNG1;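 also: natural log of median RNA to DNA barcode read ratio; higher means stronger binding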
T1 chain: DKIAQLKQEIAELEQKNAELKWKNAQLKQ

O5-bA = target: T2, O5-bA; experiment: two-hybrid library CCNG1;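 also: natural log of median RNA to DNA barcode read ratio; higher means stronger binding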
T2 chain: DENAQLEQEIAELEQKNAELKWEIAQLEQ

O7-bA = target: T3, O7-bA; experiment: two-hybrid library CCNG1;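 also: natural log of median RNA to DNA barcode read ratio; higher means stronger binding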
T3 chain: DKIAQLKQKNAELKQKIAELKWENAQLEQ

O9-bA = target: T4, O9-bA; experiment: two-hybrid library CCNG1;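 also: natural log of median RNA to DNA barcode read ratio; higher means stronger binding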
T4 chain: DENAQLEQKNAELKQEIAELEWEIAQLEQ

O2-bA = target: T5, O2-bA; experiment: two-hybrid library CCNG1;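 also: natural log of median RNA to DNA barcode read ratio; higher means stronger binding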
T5 chain: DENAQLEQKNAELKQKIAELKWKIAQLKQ

O8-bA = target: T6, O8-bA; experiment: two-hybrid library CCNG1;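 also: natural log of median RNA to DNA barcode read ratio; higher means stronger binding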
T6 chain: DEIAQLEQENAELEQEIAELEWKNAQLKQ

O16-bA = target: T7, O16-bA; experiment: two-hybrid library CCNG1
T7 chain: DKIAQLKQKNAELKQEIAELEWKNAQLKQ

O3-bA = target: T8, O3-bA; experiment: two-hybrid library CCNG1
T8 chain: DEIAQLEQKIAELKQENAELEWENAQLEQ

O6-bA = target: T9, O6-bA; experiment: two-hybrid library CCNG1
T9 chain: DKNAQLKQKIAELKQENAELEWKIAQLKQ

4H2935-AA = target: T10, 4H2935-AA; experiment: two-hybrid library CCmax; conditions: mean of both orientations
T10 chain: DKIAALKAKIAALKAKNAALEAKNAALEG

4H2513-AA = target: T11, 4H2513-AA; experiment: two-hybrid library CCmax
T11 chain: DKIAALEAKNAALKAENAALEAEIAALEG

4H481-AA = target: T12, 4H481-AA; experiment: two-hybrid library CCmax; conditions: mean of both orientations
T12 chain: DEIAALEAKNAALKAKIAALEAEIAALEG

4H3625-AA = target: T13, 4H3625-AA; experiment: two-hybrid library CCmax; conditions: mean of both orientations
T13 chain: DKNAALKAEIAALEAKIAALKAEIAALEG

4H3922-AA = target: T14, 4H3922-AA; experiment: two-hybrid library CCmax; conditions: mean of both orientations
T14 chain: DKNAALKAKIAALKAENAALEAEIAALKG

4H2614-AA = target: T15, 4H2614-AA; experiment: two-hybrid library CCmax; conditions: mean of both orientations
T15 chain: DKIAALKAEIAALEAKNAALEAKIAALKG

4H55-AA = target: T16, 4H55-AA; experiment: two-hybrid library CCmax
T16 chain: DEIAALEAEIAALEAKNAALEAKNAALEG

4H3605-AA = target: T17, 4H3605-AA; experiment: two-hybrid library CCmax; conditions: mean of both orientations
T17 chain: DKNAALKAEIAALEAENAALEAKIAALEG

4H662-AA = target: T18, 4H662-AA; experiment: two-hybrid library CCmax; conditions: mean of both orientations
T18 chain: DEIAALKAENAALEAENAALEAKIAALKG

4H4033-AA = target: T19, 4H4033-AA; experiment: two-hybrid library CCmax; conditions: mean of both orientations
T19 chain: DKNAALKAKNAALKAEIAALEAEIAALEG

4H2726-AA = target: T20, 4H2726-AA; experiment: two-hybrid library CCmax; conditions: mean of both orientations
T20 chain: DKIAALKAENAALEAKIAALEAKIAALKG

4H2608-AA = target: T21, 4H2608-AA; experiment: two-hybrid library CCmax; conditions: mean of both orientations
T21 chain: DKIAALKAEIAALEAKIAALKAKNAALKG

4H369-AA = target: T22, 4H369-AA; experiment: two-hybrid library CCmax; conditions: mean of both orientations
T22 chain: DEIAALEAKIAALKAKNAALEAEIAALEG

4H2536-AA = target: T23, 4H2536-AA; experiment: two-hybrid library CCmax
T23 chain: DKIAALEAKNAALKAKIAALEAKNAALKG

4H327-AA = target: T24, 4H327-AA; experiment: two-hybrid library CCmax; conditions: mean of both orientations
T24 chain: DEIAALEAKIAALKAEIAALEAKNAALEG

4H3664-AA = target: T25, 4H3664-AA; experiment: two-hybrid library CCmax; conditions: mean of both orientations
T25 chain: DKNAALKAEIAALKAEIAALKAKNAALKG

DKIAQLKQKNAELKQEIAELEWKNAQLKQ [O16-bA]
interaction score (O4-bA): -0.54
interaction score (O5-bA): -1.16
interaction score (O7-bA): 1.33
interaction score (O9-bA): -1.22
interaction score (O2-bA): -0.141
interaction score (O8-bA): 1.35
interaction score (O16-bA): -0.811
interaction score (O3-bA): -0.599
interaction score (O6-bA): 1.4

DKIAALEAKNAALKAENAALEAEIAALEG [4H2513-AA]
interaction score (4H2935-AA): -2.01
interaction score (4H2513-AA): -1.49
interaction score (4H481-AA): -1.36
interaction score (4H3625-AA): -2
interaction score (4H3922-AA): -1.74
interaction score (4H2614-AA): 0.461
interaction score (4H55-AA): -1.88
interaction score (4H3605-AA): -1.25
interaction score (4H662-AA): 1.22
interaction score (4H4033-AA): -1.46
interaction score (4H2726-AA): 0.913
interaction score (4H2608-AA): -1.07
interaction score (4H369-AA): -1.79
interaction score (4H2536-AA): -0.747
interaction score (4H327-AA): -1.74
interaction score (4H3664-AA): -1.85
